{
  "source": "patent US20040120943",
  "target": "rabbit thrombomodulin (UniProt Q8HZ48)",
  "data": [
    {"substance": "variant thrombin W215A/E217A (WE)", "values": [
      {"measurement": "activity toward protein C on addition of thrombomodulin", "result": "the WE variant thrombin recovers almost its full activity toward protein C upon binding to thrombomodulin"}
    ]}
  ]
}
